Residue numbers refer to the chain shown, from its start. Names may count otherwise. Where no end group is shown, it is not given here.
How the values were obtained:
[1] = target: T1, 6×His-tagged recombinant PHB2/REA protein (human, UniProt Q99623 77-244); experiment: fluorescence correlation spectroscopy, 10 nM FITC-tagged ERAP1-peptide with rising 6xHis-PHB2/REA; same constant as the 14.4 µM of the text, in mass units
T1 construct: Expressed in Escherichia coli BL21 star (DE3); also called His-PHB2/REA; 6×His-PHB2/REA; not shown: hexahistidine tag, thioredoxin (TrxA) and TEV protease cut site at the amino terminal (pTAT6 vector)
T1 sequence (Q99623 77-244): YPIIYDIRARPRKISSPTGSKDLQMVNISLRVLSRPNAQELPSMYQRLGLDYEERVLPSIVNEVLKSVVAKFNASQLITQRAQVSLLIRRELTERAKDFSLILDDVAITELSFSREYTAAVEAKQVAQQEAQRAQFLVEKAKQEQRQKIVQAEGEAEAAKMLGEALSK

[2] = target: T1, 6×His-tagged recombinant PHB2/REA …; experiment: fluorescence correlation spectroscopy, 10 nM FITC-tagged peptide with His-PHB2/REA at various concentrations; fluorescence correlation spectroscopy; 10 nM FITC-tagged peptide in solution
[3] = target: T2, HA-PHB2 (HA-tagged PHB2 construct) (human, UniProt Q99623 1-299, limits assumed); experiment: COS-7 co-transfection with the PHB2/REA construct, IP and immunoblot
T2 construct: Expressed by transfection in COS-7 or HEK293T cells; also called PHB2/REA construct; HA-tagged PHB2/REA (WT); not shown: HA tag
T2 sequence (Q99623 whole entry): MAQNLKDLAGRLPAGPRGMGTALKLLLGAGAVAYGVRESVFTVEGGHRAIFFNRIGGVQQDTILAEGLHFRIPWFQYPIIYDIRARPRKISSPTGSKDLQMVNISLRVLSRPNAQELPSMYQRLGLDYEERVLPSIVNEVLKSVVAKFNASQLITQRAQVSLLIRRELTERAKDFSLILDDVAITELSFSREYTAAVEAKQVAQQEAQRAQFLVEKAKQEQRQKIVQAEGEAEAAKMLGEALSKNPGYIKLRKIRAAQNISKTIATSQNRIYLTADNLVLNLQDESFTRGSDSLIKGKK

[4] = target: T2, HA-PHB2 (HA-tagged PHB2 construct); experiment: co-immunoprecipitation from COS-7 cells, IP anti-FLAG, blot anti-HA
[5] = target: T2, HA-PHB2 (HA-tagged PHB2 construct); experiment: co-immunoprecipitation from COS-7 cells, IP anti-FLAG and IP anti-HA
[6] = target: T2, HA-PHB2 (HA-tagged PHB2 construct); experiment: co-immunoprecipitation from COS-7 cells, IP anti-HA, blot anti-FLAG
[7] = target: T1, 6×His-tagged recombinant PHB2/REA …; experiment: fluorescence correlation spectroscopy, 10 nM FITC-tagged ERAP1-scramble peptide with rising 6xHis-PHB2/REA
[8] = target: T1, 6×His-tagged recombinant PHB2/REA …; experiment: Ni-resin pull-down of 10 µg His-PHB2 mixed with lysate of Flag-tagged ERAP1 expressing cells and HA-peptide; blot for Peptide
[9] = target: T1, 6×His-tagged recombinant PHB2/REA …; experiment: Biacore 3000, 6×His-tagged recombinant PHB2/REA immobilized on a CM5 chip, peptide injected; Biacore; His-PHB2/REA on the chip, HA-tagged peptide injected
[10] = target: T3, inherent ERAP1 (Estrogen Receptor Activity-regulated Protein 1) (human, UniProt Q5TH69 1-2177); experiment: co-IP from cytoplasm and nuclear fractions of KPL-3C cells, 24 h, 10 nM E2 and/or 10 µM HA-tagged ERAP1-peptide; blot anti-HA
T3 construct: Endogenous protein immunoprecipitated from cell lysates; also called ERAP1 polypeptide; BIG3

**Q.** Which results are given for RRRRRRRRRRRQMLSDLTLQLRQR (also: FITC tag, position not given here) [FITC-tagged ERAP1-peptide]?
**A.** Kd [1]: 480 µg/mL; Kd [2]: 14.4 µM

B1: ERAP1 mutant (alanine mutant of Q165, D169 and Q173) (other)
chain: MEEILRKLQKEASGSKYKAIKESCTWALETLGGLDTIVKIPPHVLREKCLLPLQLALESKNVKLAQHALAGMQKLLSEERFVSMETDSDEKQLLNQILNAVKVTPSLNEDLQVEVMKVLLCITYTPTFDLNGSAVLKIAEVCIETYISSCHQRSINTAVRATLSAMLSALTLALRQRQENTIIENPDVPQDFGNQGSTVESLCDDVVSVLTVLCEKLQAAINDSQQLQLLYLECILSVLSSSSSSMHLHRRFTDLIWKNLCPALIVILGNPIHDKTITSAHTSSTSTSLESDSASPGVSDHGRGSGCSCTAPALSGPVARTIYYIAAELVRLVGSVDSMKPVLQSLYHRVLLYPPPQHRVEAIKIMKEILGSPQRLCDLAGPSSTESESRKRSISKRKSHLDLLKLIMDGMTEACIKGGIEACYAAVSCVCTLL
notes: not shown: Flag tag
**Q.** With B1 as the binder, how does the “coprecipitation band, ratio when that with ERAP1 (1-434 aa) is designated as 100” value [3] read?
**A.** Its value is 2%.

**Q.** What about the “ratio of the coprecipitated band (ERAP1 1-434 = 100)” value (“ratio of the coprecipitated band” for short) [4] of the same binder?
**A.** Its value is 1.

**Q.** Does B1 bind [5]?
**A.** Result: no binding

B2: Q173A (other)
single chain: B1 chain with A165Q, A169D
notes: Construct named in the text, but absent from the list MOLECULES; its band ratios stand only on the sheet; also called alanine mutant of Q173 (Q173A)
**Q.** For B2, which “ratio of the coprecipitated band” value [4] is on record?
**A.** Its value is 79.

**Q.** What about the “ratio of the coprecipitated band” value [6] of the same binder?
**A.** The value was 52.

B3: scrPeptide (peptide)
peptide: DRQLQLSTLQRML
modifications: also: FITC tag, position not given here
notes: also called FITC-tagged ERAP1-scramble peptide
**Q.** Does B3 bind [7]?
**A.** Result: no binding (tested: about 1.25 mg/mL)

B4: Scramble (HA-Peptide) (peptide)
single chain: DRQLQLSTLQRML
notes: it is detected in the Peptide blot, so it carries the tag; also called HA-tagged ERAP1-scramble peptide
**Q.** Does B4 bind [8]?
**A.** Result: no binding (tested: 100 µM)

B5: HA-tagged ERAP1-peptide (peptide)
peptide: RRRRRRRRRRRQMLSDLTLQLRQR
notes: ERAP1-peptide to which an HA tag was added; also called ERAP1-HA-peptide; HA tag-added peptide; not shown: HA tag
**Q.** Which results are given for B5?
**A.** Kd [9]: 18.9 µM; binding result [10]: no binding (tested: 10 µM)
